Patent publication US20120065123A1 (published 2012)
Where no end group is shown, it is not given here.

Assays:
[1] = target: T1, Tumor Necrosis Factor-alpha (TNF-α); test: SPR kinetic fits of sensorgrams
T1 construct: also called TNF-a

[2] = target: T1, Tumor Necrosis Factor-alpha (TNF-α); test: SPR equilibrium, Biacore A100, TNF-α captured on chip
Protocol: Point-mutant libraries were prepared in 96-well stock plates From the stock plate, peptides were diluted to 50 μM concentration in Biacore HBS-EP buffer (GE Healthcare, Piscataway, N.J.) containing 1 mg/ml carboxymethyl-dextran (Sigma-Aldrich, St. Louis, Mo.) to reduce non-specific binding to the CM-5 SPR chip surface. […] Spot 3 contained only immobilized neutravidin and served as a reference spot.
Purified point-mutant affinities were measured on the Biacore A100 using SPR equilibrium binding response across a series of peptide concentrations on an SPR chip with TNF-α captured as described above.

[3] = target: T2, transferrin; test: SPR
T2 construct: Alexa 555 labelled on arrays, amine-coupled to the chip in SPR, on beads in mRNA display; also called TRF; transferring
T2 sequence (P02787 20-698): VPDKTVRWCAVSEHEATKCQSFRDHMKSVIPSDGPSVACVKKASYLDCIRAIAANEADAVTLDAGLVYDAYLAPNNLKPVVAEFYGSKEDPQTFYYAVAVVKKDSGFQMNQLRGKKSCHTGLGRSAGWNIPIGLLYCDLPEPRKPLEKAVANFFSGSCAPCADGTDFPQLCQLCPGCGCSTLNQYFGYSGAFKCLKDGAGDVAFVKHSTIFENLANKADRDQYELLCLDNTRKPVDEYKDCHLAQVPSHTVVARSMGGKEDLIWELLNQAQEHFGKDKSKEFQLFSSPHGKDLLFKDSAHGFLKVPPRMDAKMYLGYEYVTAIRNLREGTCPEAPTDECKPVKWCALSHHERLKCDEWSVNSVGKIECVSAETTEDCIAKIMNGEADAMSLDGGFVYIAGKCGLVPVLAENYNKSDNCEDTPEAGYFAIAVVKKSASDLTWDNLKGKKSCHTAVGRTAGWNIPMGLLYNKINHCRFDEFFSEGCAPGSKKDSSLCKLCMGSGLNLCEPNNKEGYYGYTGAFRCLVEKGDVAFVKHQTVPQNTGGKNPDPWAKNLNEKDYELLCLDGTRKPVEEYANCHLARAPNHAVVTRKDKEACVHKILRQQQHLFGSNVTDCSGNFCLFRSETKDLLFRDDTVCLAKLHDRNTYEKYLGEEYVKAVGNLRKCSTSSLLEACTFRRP

[4] = target: AKT1 (Homo sapiens (Human), UniProt P31749 1-480); test: SPR
Sequence of AKT1 (P31749 whole entry): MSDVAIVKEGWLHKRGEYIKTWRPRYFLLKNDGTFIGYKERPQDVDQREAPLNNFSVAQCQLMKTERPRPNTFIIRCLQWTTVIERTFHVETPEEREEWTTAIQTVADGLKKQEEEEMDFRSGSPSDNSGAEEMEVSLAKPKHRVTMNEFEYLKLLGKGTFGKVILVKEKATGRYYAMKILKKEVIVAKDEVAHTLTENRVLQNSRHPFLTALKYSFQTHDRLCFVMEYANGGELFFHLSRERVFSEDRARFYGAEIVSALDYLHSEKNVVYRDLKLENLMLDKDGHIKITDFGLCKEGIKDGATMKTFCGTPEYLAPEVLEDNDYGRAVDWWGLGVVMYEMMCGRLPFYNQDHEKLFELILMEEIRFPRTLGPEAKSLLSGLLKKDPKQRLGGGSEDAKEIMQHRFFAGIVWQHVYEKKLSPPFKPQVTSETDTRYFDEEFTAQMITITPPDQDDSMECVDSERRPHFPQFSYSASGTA

[5] = target: T3, ANXA1 (human, UniProt P04083); test: Invitrogen Protoarray Human Protein Microarray v. 4.0; biotinylated synbody detected with fluorescently labelled streptavidin; fluorescence intensity above background
T3 construct: GST fusion, feature of the Invitrogen Protoarray Human Protein Microarray v; 4.0
T3 sequence (array feature, looked up): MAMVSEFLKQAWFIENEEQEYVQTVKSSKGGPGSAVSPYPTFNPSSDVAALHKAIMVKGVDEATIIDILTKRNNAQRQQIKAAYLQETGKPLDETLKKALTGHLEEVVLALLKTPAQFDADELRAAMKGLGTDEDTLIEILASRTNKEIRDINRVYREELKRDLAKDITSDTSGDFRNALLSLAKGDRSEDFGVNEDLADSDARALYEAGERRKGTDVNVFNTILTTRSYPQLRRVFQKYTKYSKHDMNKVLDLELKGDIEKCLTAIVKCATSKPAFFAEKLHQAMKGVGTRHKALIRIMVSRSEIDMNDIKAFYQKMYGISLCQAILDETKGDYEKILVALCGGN
Protocol: (§1) Application of the synbodies to the microarray was performed in accordance with manufacturer instructions: (see ProtoArray Human Protein Microarray, Invitrogen, Catalog no. PAH052401, Version B, 15 Dec. 2006, 25-0970, Users Manual.) After blocking the array with 1% BSA/PBS/0.1% Tween for 1 hour at 4C with gentle shaking, 120 μl of probing buffer (1×PBS, 5 mM mgCl2, 0.5 mM DTT, 0.05% Triton X-100, 5% glycerol, 1% BSA) with synbody was applied to the array. The prescribed cover slip was placed over the array and adjusted to remove air bubbles. The array was incubated in a 50 ml conical tube, printed side up, for 1.5 hours at 4C without shaking. The array was then removed from the conical tube inserted diagonally into the array chamber, kept on ice. 8 ml probing buffer was added to the chamber wall. The cover slip was removed and the array was incubated in probing buffer for 1 minute on ice. The probing buffer was decanted and drained. Two further washings were performed adding 8 ml probing buffer, incubating on ice for 1 minute, and decanting and draining. 5 nM fluorescently labeled streptavidin diluted in 6 ml probing buffer was incubated on the array for 30 minutes on ice in the dark, after which the solution was decanted and drained. Three wash steps were performed, each by adding 8 ml probing buffer, incubating for 1 minute on ice, decanting, and draining. The array was removed from the chamber, centrifuged at 800×g for 5 minutes at room temperature. The array was dried in the dark for 60 minutes at room temperature, after which it was scanned using a fluorescent microarray scanner and data was taken and analyzed.

[6] = target: T4, ROCK2 (human, UniProt O75116); test: as above
T4 construct: GST fusion, feature of the Invitrogen Protoarray Human Protein Microarray v; 4.0
T4 sequence (O75116 1-552 limits assumed): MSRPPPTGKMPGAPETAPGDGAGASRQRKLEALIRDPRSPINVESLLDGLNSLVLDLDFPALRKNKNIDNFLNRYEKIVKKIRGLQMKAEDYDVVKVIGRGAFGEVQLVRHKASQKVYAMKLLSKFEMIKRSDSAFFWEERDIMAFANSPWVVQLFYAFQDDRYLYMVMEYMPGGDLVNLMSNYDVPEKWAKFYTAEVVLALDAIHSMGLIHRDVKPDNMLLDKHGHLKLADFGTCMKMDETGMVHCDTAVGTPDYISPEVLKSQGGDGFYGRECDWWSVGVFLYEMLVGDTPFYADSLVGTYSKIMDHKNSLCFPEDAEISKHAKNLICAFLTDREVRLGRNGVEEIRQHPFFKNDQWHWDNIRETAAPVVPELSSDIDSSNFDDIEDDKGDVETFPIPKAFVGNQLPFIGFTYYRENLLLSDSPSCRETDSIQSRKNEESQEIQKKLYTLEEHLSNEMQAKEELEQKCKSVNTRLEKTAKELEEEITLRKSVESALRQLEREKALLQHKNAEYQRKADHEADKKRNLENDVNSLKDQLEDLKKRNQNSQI
Protocol: as §1

[7] = target: T5, PTK2 (human, UniProt Q05397); test: as above
T5 construct: GST fusion, feature of the Invitrogen Protoarray Human Protein Microarray v; 4.0
T5 sequence (Q05397 whole entry, the tested form may be a part): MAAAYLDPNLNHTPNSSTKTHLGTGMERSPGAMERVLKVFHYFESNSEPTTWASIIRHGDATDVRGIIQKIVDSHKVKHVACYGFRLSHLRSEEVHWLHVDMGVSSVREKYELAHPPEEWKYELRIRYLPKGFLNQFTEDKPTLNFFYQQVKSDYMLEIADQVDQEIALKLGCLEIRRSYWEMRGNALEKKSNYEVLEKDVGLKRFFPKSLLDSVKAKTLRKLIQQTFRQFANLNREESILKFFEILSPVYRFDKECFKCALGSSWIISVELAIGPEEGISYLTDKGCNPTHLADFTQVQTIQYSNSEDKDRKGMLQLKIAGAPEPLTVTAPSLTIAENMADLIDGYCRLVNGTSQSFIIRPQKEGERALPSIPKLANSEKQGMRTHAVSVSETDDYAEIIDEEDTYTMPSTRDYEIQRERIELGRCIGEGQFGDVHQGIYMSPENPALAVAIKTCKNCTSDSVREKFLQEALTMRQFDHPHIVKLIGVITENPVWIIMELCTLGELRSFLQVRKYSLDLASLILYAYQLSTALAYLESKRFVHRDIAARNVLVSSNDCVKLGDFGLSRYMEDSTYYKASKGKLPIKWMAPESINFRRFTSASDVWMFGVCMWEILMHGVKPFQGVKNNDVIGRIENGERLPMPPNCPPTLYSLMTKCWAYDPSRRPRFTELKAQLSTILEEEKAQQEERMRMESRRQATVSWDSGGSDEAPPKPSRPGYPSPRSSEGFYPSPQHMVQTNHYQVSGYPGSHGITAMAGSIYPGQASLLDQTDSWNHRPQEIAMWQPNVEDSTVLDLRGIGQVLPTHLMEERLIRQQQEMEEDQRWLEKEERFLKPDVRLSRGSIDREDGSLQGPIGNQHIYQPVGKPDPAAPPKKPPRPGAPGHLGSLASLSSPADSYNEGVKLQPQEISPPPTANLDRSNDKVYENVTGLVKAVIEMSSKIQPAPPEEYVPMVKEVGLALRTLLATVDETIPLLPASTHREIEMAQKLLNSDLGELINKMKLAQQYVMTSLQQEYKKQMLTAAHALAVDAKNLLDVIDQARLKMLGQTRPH
Protocol: as §1

[8] = target: T6, LACRT (human, UniProt Q9GZZ8); test: as above
T6 construct: GST fusion, feature of the Invitrogen Protoarray Human Protein Microarray v; 4.0
T6 sequence (array feature, looked up): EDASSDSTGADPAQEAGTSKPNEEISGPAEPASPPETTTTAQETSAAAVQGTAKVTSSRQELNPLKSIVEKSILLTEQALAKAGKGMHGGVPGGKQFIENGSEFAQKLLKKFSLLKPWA
Protocol: as §1

[9] = target: T7, CHAF1B (human, UniProt Q13112); test: as above
T7 construct: GST fusion, feature of the Invitrogen Protoarray Human Protein Microarray v; 4.0
T7 sequence (Q13112 whole entry, the tested form may be a part): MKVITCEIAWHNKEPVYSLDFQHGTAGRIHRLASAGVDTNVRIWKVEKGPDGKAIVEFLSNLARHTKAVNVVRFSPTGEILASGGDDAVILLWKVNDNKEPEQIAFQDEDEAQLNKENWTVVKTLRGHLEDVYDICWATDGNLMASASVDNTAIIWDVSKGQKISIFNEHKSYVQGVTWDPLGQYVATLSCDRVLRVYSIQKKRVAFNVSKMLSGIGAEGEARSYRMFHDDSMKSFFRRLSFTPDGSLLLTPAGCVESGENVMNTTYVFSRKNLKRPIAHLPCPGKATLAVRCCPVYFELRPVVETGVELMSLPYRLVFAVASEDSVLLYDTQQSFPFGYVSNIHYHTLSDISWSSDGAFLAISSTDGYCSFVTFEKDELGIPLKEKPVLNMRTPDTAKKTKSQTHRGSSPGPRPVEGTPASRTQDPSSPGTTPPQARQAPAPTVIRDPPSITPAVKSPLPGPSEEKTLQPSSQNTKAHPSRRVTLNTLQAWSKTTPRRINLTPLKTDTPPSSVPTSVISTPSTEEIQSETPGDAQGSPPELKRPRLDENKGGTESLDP
Protocol: as §1

[10] = target: T8, ACTC (human, UniProt P68032); test: as above
T8 construct: GST fusion, feature of the Invitrogen Protoarray Human Protein Microarray v; 4.0
Protocol: as §1

[11] = target: T9, pooled human transferrin (Sigma), biotinylated (human, UniProt P02787 20-698, biotinylated at amines with NHS-LC-LC-Biotin); test: SPR Biacore A-100, purified peptide at several concentrations
T9 construct: Captured on Neutravidin on a CM5 chip (Biacore A-100)
T9 sequence (P02787 20-698 limits assumed): as the sequence (P02787 20-698) above
Excerpt: A Biacore A-100 Surface Plasmon Resonance (SPR) system was used to measure the binding response of each peptide to several different target proteins immobilized on a gold surface. The A-100 has four different flow cells and within each flow cell are five addressable spots. Therefore four different proteins and a negative control reference can be used per flow cell. Depending on the purpose of the assay, up to 16 different target proteins can be immobilized on a single SPR chip. The instrument is equipped to evaluate up to 10 384-well plates unattended and can process approximately four 384-well plates per day. Sensorgrams are collected from each immobilized protein, so a binding profile for each analyte versus each of the protein targets is generated for each injection. Target proteins were immobilized using a biotin capture approach in which a CM5 chip was activated using standard amine coupling chemistry and Neutravidin was covalently coupled to the chip. Each biotinylated protein was injected over a single spot and the amount of protein captured was measured.

T1 sequence (P01375 77-233): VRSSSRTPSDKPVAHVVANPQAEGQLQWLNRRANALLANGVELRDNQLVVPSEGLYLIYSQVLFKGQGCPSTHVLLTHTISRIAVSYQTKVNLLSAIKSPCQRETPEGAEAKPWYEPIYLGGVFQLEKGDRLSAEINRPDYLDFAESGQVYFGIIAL

FERDPLMMPWSFLQSRQGSC [TNF1 lead peptide]
koff [1]: 1.6 s⁻¹ | Kd [2]: 160 µM

B1: SYN23-26 (designed binder)
peptide 1: FRGWAHIFFGPHVIYRGGSG
peptide 2: AHKVVPQRQIRHAYNRYGSG
modifications: also: linker at chain A 20 at chain B 20 to a chain's C-terminus via Lys-Cys(biotin)
notes: Two 20-mers on the alpha and epsilon amines of a lysine, about 1 nm apart; thiol of the cysteine biotinylated for array detection; also called biotinylated anti-TRF synbody
Kd [3]: ~0.141 µM | Kd [4]: ~0.001 µM | binding result [5]: binds | binding result [6]: no binding | binding result [7]: no binding | binding result [8]: no binding | binding result [9]: binds | binding result [10]: binds

B2: TRF101 (peptide)
peptide: ARDLLIQKNSGQDVDHRGSC
notes: Screened unpurified, then resynthesised and HPLC purified for the KD
Kd [11]: 78.9 µM
